Measurements taken from patent publication CN116041520A (WUHAN ABCLONAL CO LTD, dated 2023).

Target: T1, 重组Human CD63蛋白(Ala103-Val203) (Human, UniProt P08962 103-203)
T1 construct: Fragment 103-203 of human CD63 expressed in 293F cells from vector pBR322 and purified with imidazole elution; also called 重组CD63蛋白; 重组Human CD63成熟蛋白
T1 sequence: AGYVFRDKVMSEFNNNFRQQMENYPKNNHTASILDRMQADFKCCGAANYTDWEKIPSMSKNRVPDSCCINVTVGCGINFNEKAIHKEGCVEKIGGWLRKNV
Assay: sandwich ELISA, 3C5 coated as capture antibody at 2 ug/mL, Human CD63 0-10 ng/mL, OD450

B1: 针对Human CD63的兔单克隆抗体3C5 (antibody, V domains shown)
VH: QEQLVESGGGLVQPEGSLTLTCTASGFTFSTAWMSWVRQAPGKGLEWIGIINTGGTGKTYYASWAKGRFTCSKTSSTTVTLQMTSLTAADTATYFCARETADFNLWGQGTLVTVSS
VL: DVVMTQTPSSTSEPVGGTVTINCQASESVYNNDDLAWLQQKPGQPPKVLIYSASKLASGVPSRFSGSGSGTQFTLTISGVQCDDAASYYCVGLFDGDYFAFGGGTEVVVKG
notes: Coated on the plate as capture antibody at 2 ug/mL; also called 捕获抗体
B1: binds.
